The record followed here is PMC13185609.

Experiment [1] has as its target Env of the infectious molecular clone 246.F3-NL4.3+BN (HIV-1 (NL4.3) | HIV-1 (subtype AC, 246.F3)).
Experiment [2] addresses 246.F3 Env N276K (pseudovirus) (HIV-1 (subtype AC, 246.F3)).
Experiment [3] concerns the target 246.F3 Env, wild type (pseudovirus 246.F3-SG3 WT) (HIV-1 (subtype AC, 246.F3)).
In experiment [4] the target is 246.F3 Env N276D (pseudovirus made in Expi293F) (HIV-1 (subtype AC, 246.F3)).

For the substance VRC01 (antibody), in experiment [1], the IC50 of neutralisation of the 246.F3-NL4.3+BN virus stock, TZM-bl cells is 0.35 µg/mL and the IC80 of neutralisation of the 246.F3-NL4.3+BN virus stock, TZM-bl cells was 0.85 µg/mL. The IC50 of neutralisation of pseudovirus, TZM-bl cells (highest concentration tested 50 µg/mL) in experiment [2] is greater than 50 µg/mL. For the same substance, in experiment [3], the IC50 of neutralisation of pseudovirus, TZM-bl cells came out at 0.204 µg/mL. The substance also displayed a neutralisation of pseudovirus made in Expi293F cells, TZM-bl cells; fold change in sensitivity against wild-type 246.F3 in experiment [4] of 5 fold.
